Measured values as given in the DeepSol protein solubility set.

Assay: soluble on expression in E. coli; label from the status in PepcDB or PDB records

Sequence | soluble on expression in E. coli
MAHHHHHHMSKEKLAKEKIEKGQHYEAHQLIKSLINRKLQKNQVSSCMSIIFYFSQKMAKAEQYVLLCDLMYQCCTILTQHNIKFSEEYAKKIIEIFNLCPPNSTEEKYKFMNKCILWSTNDDEIFGYLDFHKAIAYAYFEDKKYSLAHNHFIYLEDNEILYKIICLWQKEGYPSESDFFILRTTLCLLVLDKFEQALDLINKFEPNLDRKDVPLPVQIAYLITCSCIYRSAPLYEDVKYKYRLILNYDPDFQKYIGILDDVLFNKRKHDLFSMFQNIFG | not soluble
MNRLLNEKVEEFKKGVLKAGWFIEKMFRNSISSLVERNESLAREVIADEEVVDQMEVEIQEKAMEVLGLFSPIGKPLLTVTAGIRVAELIENIADKCHDIAKNVLELMEEPPLKPLEDIPAMANQTSEMLKFALRMFADVNVEKSFEVCRMDSKVDDLYEKVREELLLYMMESPKYVKRALLLLEIAGNIEIIADYATNIVEVSVYMVQGEAYKCYHDELLLFKKSGGVLFESSD | soluble
MAHHHHHHMSEARQIQSMIDFIEREAQEKADELNSAAQEEYDVEKMRLVEAEKVKVRANNEQKLKQVDVGRRVARANFSKAQRLRIMEAQSNIVEQLKENIKTKLMAFVKNTDSYKKLLVSILHEALSAVRTDAIVYTCKNDEPIVTGMLSELEQWYLKTVGTRVSIRMGKEYLNAEEALGGVVVKSHDGHIVCNWTLSSRMRNCVNDQLPTIRYYLFNPESSI | not soluble
MQHYLLDSNQRLNVSFSKDSVAAYYQCFNQPYRKEVPPLMCASLWPKFDLFKKYANSELILTKSAINQTQKIEVDTIYVGHLEDIECRQTRNITRYTMALTLTKNDQHVITVTQTFIKAMK | not soluble
MPKDWDAFYRNAPEDRPPAFVVRAYGPFVPQGPVLDLAGGLGRNARYFLQRGHPVVLVERSREALRRLSGTPGLTLVALDLEGADAPQSLPQGPFAGIVMAYYVNRPLLQGLAPLLLPGGLVLVEGFSRKEALRRGRPHSPFYWEGEELLTPPPGLALRAFGEGWMEGYRVYAVYLRP | soluble
MGSDKIHHHHHHMSDLKSLATKFASDHESGKLLVLPTVWDTWSAGLVEEAGFSGLTIGSHPVADATGSSDGENMNFADYMAVVKKITSAVSIPVSVDVESGYGLSPADLIAQILEAGAVGINVEDVVHSEGKRVREAQEHADYIAAARQAADVAGVDVVINGRTDAVKLGADVFEDPMVEAIKRIKLMEQAGARSVYPVGLSTAEQVERLVDAVSVPVNITAHPVDGHGAGDLATLAGLGVRRVTFGPLWQKWLAATSAQQLKGWA | not soluble
MTKDQRRSLTKKALLDALVICLKDQDFNEITTIRLVQTAGISRSSFYTHYKDKFEMIDSYQKELFHKLEYIFDKYEGKKEGAFLEIFEILTREKLLSALLSTNGAKEIQDFLINKLQRMIAKDFIDPTAEKRALKGFEKDYASIYLAHAIFGACQAWIKNGKKESPQEMTDFLLRFIPQ | not soluble
MSLANLFESHSPAGPLANRMRPQSLDEIVGQRHLIGESTLLRRAILADRLGTVIFYGPPGTGKTTLARVISSYTKSAFEQLNAVTAKLDQLREVLKAAESRLQFDQQKTILFLDEIHRFNKMQQDALLPALEAGTITLIGATTENPSFEVNAALLSRATVFRFETPTTEDLRVVLHRTLHDTERGLGKYPITVTEEAVDHYVKLSDGDYRALLNALELAVLTTPEIDGEITIDLSVAEESIQQKALKYDKDGDRHYDVISAFIKSIRGSDPDAALYWLAVMIEAGESPRFIVRRLYVHAAEDIGMSDPQALLIVDACARACEYIGFPEARIPLAETVLYLATAPKSNTVITAIDQALELVRRSDGGPVPPHLRDAHHAGAAALGNGVEYQYPHQFPHAYVKQNYWPENLARTKPVFYKPSPRGFEKQLQARLDFWKKQEGHHHHHH | soluble
GPGSMQMEEKQAFFVESVDGRKFKMVIRGDLGKLSVAKIRRYLKSYGVPENQLLLAGNRVLEDAMLGEQFGLENEGVLHLREPTTVQHLAPAAVPSTAQSRTQLQQKPELSYEPQSAWRETRYEPAAHDARQMQREIERLQRQVEAAEARNADLEHQLEQVAESSAPYPPRGGAGGARRMSNSSDLDGLQVAKQSLKILAQKLGVSLQFDKNLTCVVGTDADFSILLTYDPATERLYIYSSLLTELPDHPPLRMKLYEVLLEGSLLGREVCGGGVGLSTQNNVVVLTTSLPVRHCSPEALCEVMPLFVETLVRWRSLIDELVR | soluble
